Several values for one entry are separate records, joined by “and”; a condition that tells them apart may be missing. Equal values may be shown once. Each block holds one substance with its values, some of them ahead of it.
Legend:
[1] = molecular target: S. cerevisiae Ire1 kinase/RNase domains (WT Sc Ire1-KR) (S. cerevisiae); experiment: AUC; sedimentation equilibrium, 20°C; 2.5, 5 and 10 μM protein at 7,000, 10,000 and 14,000 rpm; 50 mM Tris/HCl pH 7.5, 200 mM NaCl, 2 mM Mg(OAc)2, 2 mM TCEP; global fit to a self-association equilibrium model; monomer-dimer equilibrium constant
[2] = molecular target: Sc Ire1-KR(K992D,Y1059R) (S. cerevisiae); experiment: cross-linking; 12.5 μM Ire1-KR, 2 mM ADP, 1 mM BS3 (bissulfosuccinimidyl suberate), 2 h on ice; 50 mM HEPES, 200 mM NaCl, 2 mM Mg(OAc)2, 2 mM TCEP, 10% glycerol; SDS-PAGE, coomassie blue or SYPRO Ruby
[3] = molecular target: Sc Ire1-KR(K992D,Y1059R) (S. cerevisiae); experiment: AUC; sedimentation equilibrium, 20°C; 2.5, 5 and 10 μM protein at 7,000, 10,000 and 14,000 rpm; 50 mM Tris/HCl pH 7.5, 200 mM NaCl, 2 mM Mg(OAc)2, 2 mM TCEP; global fit to a self-association equilibrium model; monomer-dimer equilibrium constant
[4] = molecular target: Sc Ire1-KR(K992R,Y1059D) (S. cerevisiae); experiment: cross-linking; 12.5 μM Ire1-KR, 2 mM ADP, 1 mM BS3 (bissulfosuccinimidyl suberate), 2 h on ice; 50 mM HEPES, 200 mM NaCl, 2 mM Mg(OAc)2, 2 mM TCEP, 10% glycerol; SDS-PAGE, coomassie blue or SYPRO Ruby

Kd [1]: 57 µM
Substance: S. cerevisiae Ire1 kinase/RNase domains (WT Sc Ire1-KR) (domain or fragment)

stoichiometry N [2]: 2 and 4
Kd [3]: 0.98 µM
Substance: Sc Ire1-KR(K992D,Y1059R) (domain or fragment)

stoichiometry N [4]: 2
Substance: Sc Ire1-KR(K992R,Y1059D) (domain or fragment)
